Patent publication US20100317583A1, “TREATMENT OF MELANOMA WITH ALPHA THYMOSIN PEPTIDES IN COMBINATION WITH AN ANTINEOPLASTIC HEAT SHOCK APOPTOSIS ACTIVATOR (HSAA)” (SciClone Pharmaceuticals, Inc., priority 2007, published 2010)
Read-outs that look alike come from different tables or passages of the source. No end group written: not given here.

Format: in vivo
Conditions: for Body weight (Mean ± SD) / PI (BW), inhibition of body weight vs vehicle: low-dose arms: TA-1 6 mg/kg s.c. daily, Pac 10 + Ele 10 mg/kg co-i.v. Days 1, 7, 13
Method: In this study, the anti-tumor effect of the combined treatment of thymosin alpha-1 (TA-1), Paclitaxel (Pac) and Elesclomol (Ele) was evaluated in C57BL/6 mice bearing B16 melanoma cells. The toxic effects of the dosing regimens were also monitored. A total of 60 mice were implanted subcutaneously with murine B16 cells, followed by treatment with TA-1 or Pac/Ele alone or in combination for 14 consecutive days. TA-1 was given daily via s.c., while Pac and Ele were co-i.v. administered on Day 1, 7 and 13. In total, 6 groups were used: Group 1: vehicle; Group 2: TA-1 6 mg/kg; Group 3: Pac 10 mg/kg+Ele 10 mg/kg; Group 4: Pac 30 mg/kg+Ele 30 mg/kg; Group 5: TA-1 6 mg/kg+Pac 10 mg/kg+Ele 10 mg/kg; and Group 6: TA-1 6 mg/kg+Pac 30 mg/kg+Ele 30 mg/kg. Tumor volume and body weight were measured every three days, and tumor weights were measured on Day 17 at the end of the study.
On Day 1, the animals were randomly assigned into different weight-matched groups, and dosing was started using the regimen according to Table 2. Briefly, TA-1 was administered once daily via subcutaneous (s.c.) injection for 14 consecutive days at a site different from that of tumor cell implantation, while Pac and Ele was administered on Days 1, 7, and 13 via an intravenous (i.v.) injection.
From Day 1 to Day 15, mortality and moribundity were checked twice daily, the body weights were recorded once every 3 days, and tumors were measured using a caliper once every 3 days. At the end of the study (Day 17), the animals were euthanized by CO2 asphyxiation, and the tumors were excised and weighed.
Toxicity of all treatment regimens was evaluated with the body weights of the study animals along with the drug-induced animal deaths. The inhibition of body weight was calculated using Excel according to the equation below:
PIBW(%)=100×(BW vehicle−BW drug treated)/BW vehicle
Inter-group comparison was performed in terms of tumor volume, tumor weight and body weight, using a student's t test. P values of less than 0.05 were considered to be statistically significant.

Substance “thymosin alpha 1 (SDAAVDTSSEITTKDLKEKKEVVEEAEN; ends and bridges not checked; UniProt P06454 2-29, looked up) [TA-1, 28 amino acid peptide with a molecular weight of 3108; immunomodulator]” has a Body weights (Day 0, animal F1) of 21.5 g, a Body weights (Day 0, animal F2) of 20.8 g and a Body weights (Day 0, animal F3) of 19.3 g. It also gave a Body weights (Day 0, animal F4) of 20.0 g, a Body weights (Day 0, animal F5) of 19.9 g and a Body weights (Day 0, animal M1) of 21.8 g. It also gave a Body weights (Day 0, animal M2) of 21.5 g, a Body weights (Day 0, animal M3) of 22.9 g and a Body weights (Day 0, animal M4) of 20.7 g. It also gave a Body weights (Day 0, animal M5) of 21.4 g, a Body weights (Day 3, animal F2) of 19.0 g and a Body weights (Day 3, animal F3) of 20.2 g. It also gave a Body weights (Day 3, animal F4) of 19.8 g, a Body weights (Day 3, animal F5) of 19.1 g and a Body weights (Day 3, animal M1) of 21.1 g. For the same substance, the Body weights (Day 3, animal M2) was 17.8 g, the Body weights (Day 3, animal M3) was 19.7 g and the Body weights (Day 3, animal M4) was 20.4 g. For the same substance, the Body weights (Day 3, animal M5) was 19.8 g, the “Body weight (Mean ± SD)” value (Day 3) was 19.44 ± 1.12 g and the “PI (BW), inhibition of body weight vs vehicle” value (Day 3) was 1.17%. The Body weights (Day 6, animal F2) was 21.2 g, the Body weights (Day 6, animal F3) was 21.2 g and the Body weights (Day 6, animal F4) was 20.7 g. It also gave a Body weights (Day 6, animal F5) of 21.5 g, a Body weights (Day 6, animal M1) of 22.8 g and a Body weights (Day 6, animal M2) of 22.3 g. The Body weights (Day 6, animal M3) was 22.7 g, the Body weights (Day 6, animal M4) was 21.1 g and the Body weights (Day 6, animal M5) was 22.2 g. The “Body weight (Mean ± SD)” value (Day 6) was 21.63 ± 0.81 g, the “PI (BW), inhibition of body weight vs vehicle” value (Day 6) was −0.42% and the Body weights (Day 9, animal F1) was 20.4 g. The Body weights (Day 9, animal F2) was 20.7 g, the Body weights (Day 9, animal F3) was 20.4 g and the Body weights (Day 9, animal F4) was 20.2 g. The Body weights (Day 9, animal F5) was 20.0 g, the Body weights (Day 9, animal M1) was 22.5 g and the Body weights (Day 9, animal M2) was 21.2 g. The Body weights (Day 9, animal M3) was 22.5 g, the Body weights (Day 9, animal M4) was 20.9 g and the Body weights (Day 9, animal M5) was 21.7 g. For the same substance, the “Body weight (Mean ± SD)” value (Day 9) was 21.05 ± 0.91 g, the “PI (BW), inhibition of body weight vs vehicle” value (Day 9) was 1.13% and the Body weights (Day 12, animal F1) was 21.5 g. For the same substance, the Body weights (Day 12, animal F2) was 21.3 g, the Body weights (Day 12, animal F3) was 20.2 g and the Body weights (Day 12, animal F4) was 20.1 g. For the same substance, the Body weights (Day 12, animal F5) was 20.1 g, the Body weights (Day 12, animal M1) was 22.4 g and the Body weights (Day 12, animal M2) was 21.5 g. For the same substance, the Body weights (Day 12, animal M3) was 22.4 g, the Body weights (Day 12, animal M4) was 21.0 g and the Body weights (Day 12, animal M5) was 22.2 g. For the same substance, the “Body weight (Mean ± SD)” value (Day 12) was 21.27 ± 0.91 g, the “PI (BW), inhibition of body weight vs vehicle” value (Day 12) was 2.03% and the Body weights (Day 15, animal F1) was 21.7 g. For the same substance, the Body weights (Day 15, animal F2) was 21.5 g, the Body weights (Day 15, animal F3) was 21.2 g and the Body weights (Day 15, animal F4) was 21.2 g. It also gave a Body weights (Day 15, animal F5) of 21.1 g, a Body weights (Day 15, animal M1) of 22.5 g and a Body weights (Day 15, animal M2) of 22.5 g. The Body weights (Day 15, animal M3) was 23.4 g, the Body weights (Day 15, animal M4) was 22.0 g and the Body weights (Day 15, animal M5) was 23.6 g. For the same substance, the “Body weight (Mean ± SD)” value (Day 15) was 22.07 ± 0.91 g and the “PI (BW), inhibition of body weight vs vehicle” value (Day 15) was 1.25%.
